In the supplement of paper PMC9233669 one finds self-aminoacylation data, which are given here for 25 sequences.

One data set deals with biotinyl-Met-oxazolone. Kind of data set: self-aminoacylation, catalytic enhancement (BMO) (fold over background); higher = more active; k-Seq, kA / k0A0; sequences stand for … in GGGAAUGGAUCCACAUCUACGAAUUC…UUCACUGCAGACUUGACGAAGCUG
In a few lines:
(§1)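 Mutagenized RNA pools with a 21-nt variable region (0.43 μM) reacted with each biotinyl-aminoacyl-oxazolone at 2–1250 μM. Reactions ran in 50 μL HEPES/NaCl/KCl/MgCl2/CaCl2 buffer with 5% acetonitrile, pH 6.9–7.0, for 90 minutes at room temperature. Streptavidin-captured RNA was quantified by triplicate qPCR and Illumina sequencing, and per-sequence fraction reacted was fit to a pseudo-first-order model with 1000 bootstraps. Catalytic enhancement is median kA divided by the uncatalyzed rate, the low-activity peak of a bimodal Gaussian fit.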

For another data set, the system named is biotinyl-Ile-oxazolone. Description: self-aminoacylation, catalytic enhancement (BIO) (fold over background); higher = more active; k-Seq, kA / k0A0; sequences stand for … in GGGAAUGGAUCCACAUCUACGAAUUC…UUCACUGCAGACUUGACGAAGCUG
In a few lines:
as §1

For a further data set, the system named is biotinyl-Phe-oxazolone. Description: self-aminoacylation, catalytic enhancement (BFO) (fold over background); higher = more active; k-Seq, kA / k0A0; sequences stand for … in GGGAAUGGAUCCACAUCUACGAAUUC…UUCACUGCAGACUUGACGAAGCUG
In a few lines:
as §1

A further data set concerns biotinyl-Leu-oxazolone. Kind of data set: self-aminoacylation, catalytic enhancement (BLO) (fold over background); higher = more active; k-Seq, kA / k0A0; sequences stand for … in GGGAAUGGAUCCACAUCUACGAAUUC…UUCACUGCAGACUUGACGAAGCUG
In a few lines:
as §1

A further data set concerns biotinyl-Trp-oxazolone. Kind of data set: self-aminoacylation, catalytic enhancement (BWO) (fold over background); higher = more active; k-Seq, kA / k0A0; sequences stand for … in GGGAAUGGAUCCACAUCUACGAAUUC…UUCACUGCAGACUUGACGAAGCUG
Put shortly: as §1

Another data set concerns biotinyl-Val-oxazolone. Kind of data set: self-aminoacylation, catalytic enhancement (BVO) (fold over background); higher = more active; k-Seq, kA / k0A0; sequences stand for … in GGGAAUGGAUCCACAUCUACGAAUUC…UUCACUGCAGACUUGACGAAGCUG
In a few lines: as §1

This sample holds only a part of the variants without activity.

Consider “AAGAUAGCUAAUAGUCGCAAG [Fam3.1 aminoacylation ribozyme variant]”, for which the self-aminoacylation in the data set on biotinyl-Met-oxazolone amounted to 1.57; in the data set with biotinyl-Ile-oxazolone, 1.63; in the data set on biotinyl-Phe-oxazolone it was 2.4; with biotinyl-Leu-oxazolone, 1.82; in the data set on biotinyl-Trp-oxazolone, 1.34; in the data set on biotinyl-Val-oxazolone, 1.34.

As for “AAGUCUGCUAAUAGUGGCAAG [Fam3.1 aminoacylation ribozyme variant]”, the self-aminoacylation is 0.98 with biotinyl-Met-oxazolone; 0.678 with biotinyl-Ile-oxazolone; 3.1 in the data set on biotinyl-Phe-oxazolone; 0.866 in the data set with biotinyl-Leu-oxazolone; 1.17 in the data set with biotinyl-Trp-oxazolone; 0.765 in the data set on biotinyl-Val-oxazolone.

As to “AAAUUAGCUAAUAGUCGCAAG [Fam3.1 aminoacylation ribozyme variant]”, the self-aminoacylation amounted to 1.85 in the data set on biotinyl-Met-oxazolone; 2.36 in the data set on biotinyl-Ile-oxazolone; 2.21 in the data set with biotinyl-Phe-oxazolone; 1.92 in the data set on biotinyl-Leu-oxazolone; 3.09 in the data set with biotinyl-Trp-oxazolone; 1.81 in the data set with biotinyl-Val-oxazolone.

In the case of “AACUUUGCUAAGAGUCGCAAG [Fam3.1 aminoacylation ribozyme variant]”, the self-aminoacylation amounted to 3.93 in the data set with biotinyl-Met-oxazolone; 2.78 in the data set on biotinyl-Ile-oxazolone; 12.8 with biotinyl-Phe-oxazolone; 4.13 in the data set with biotinyl-Leu-oxazolone; 5.02 in the data set with biotinyl-Trp-oxazolone; 2.62 in the data set on biotinyl-Val-oxazolone.

With “AUUCACCUCGGUCAUCGGGCG [Fam2.2 aminoacylation ribozyme variant]”, the self-aminoacylation in the data set with biotinyl-Met-oxazolone worked out at 3.37; in the data set with biotinyl-Ile-oxazolone, 2.49; with biotinyl-Phe-oxazolone it was 19.5; in the data set on biotinyl-Leu-oxazolone, 3.62; with biotinyl-Trp-oxazolone it was 2.32; in the data set on biotinyl-Val-oxazolone, 3.43.

Turning to “GAGUUUGCGAAUAGUCGCAAG [Fam3.1 aminoacylation ribozyme variant]”, the self-aminoacylation in the data set on biotinyl-Met-oxazolone was 1.8; with biotinyl-Ile-oxazolone, 1.68; with biotinyl-Phe-oxazolone, 7.65; in the data set on biotinyl-Leu-oxazolone, 1.76; with biotinyl-Trp-oxazolone, 2.35; with biotinyl-Val-oxazolone it was 1.56.

For the sequence “CCACACUGCAAGCAAUCGGCC [Fam1B.1 aminoacylation ribozyme variant]”, the self-aminoacylation with biotinyl-Met-oxazolone turned out to be 2.93; with biotinyl-Ile-oxazolone, 3.29; in the data set with biotinyl-Phe-oxazolone it was 20.5; with biotinyl-Leu-oxazolone, 1.99; in the data set on biotinyl-Trp-oxazolone it was 3.9; in the data set with biotinyl-Val-oxazolone it was 5.56.

For the sequence “AAGUAUGCUAUUAGUCGCAAG [Fam3.1 aminoacylation ribozyme variant]”, the self-aminoacylation was 1.38 with biotinyl-Met-oxazolone; 1.66 with biotinyl-Ile-oxazolone; 1.49 with biotinyl-Phe-oxazolone; 1.68 in the data set with biotinyl-Leu-oxazolone; 1.76 in the data set with biotinyl-Trp-oxazolone; 1.59 in the data set on biotinyl-Val-oxazolone.

Turning to “AUUAACCUAGGUCAUCCGGUG [Fam2.2 aminoacylation ribozyme variant]”, the self-aminoacylation in the data set on biotinyl-Met-oxazolone is 5.02; in the data set with biotinyl-Ile-oxazolone, 3.59; with biotinyl-Phe-oxazolone, 29.5; with biotinyl-Leu-oxazolone, 4.91; in the data set on biotinyl-Trp-oxazolone, 5.68; with biotinyl-Val-oxazolone, 3.29.

In the case of “CUACUUCAUACAAUCGGUCCG [Fam1A.1 aminoacylation ribozyme variant]”, the self-aminoacylation in the data set with biotinyl-Met-oxazolone amounted to 0.76; in the data set on biotinyl-Ile-oxazolone, 0.675; with biotinyl-Phe-oxazolone it was 0.5; with biotinyl-Leu-oxazolone, 0.669; in the data set with biotinyl-Trp-oxazolone it was 0.49; in the data set with biotinyl-Val-oxazolone, 0.653.

Turning to “CUACUCCAAACAAACGGUCUG [Fam1A.1 aminoacylation ribozyme variant]”, the self-aminoacylation in the data set on biotinyl-Met-oxazolone worked out at 0.531; in the data set on biotinyl-Ile-oxazolone it was 0.816; in the data set with biotinyl-Phe-oxazolone it was 1.09; with biotinyl-Leu-oxazolone, 0.71; with biotinyl-Trp-oxazolone, 0.918; in the data set on biotinyl-Val-oxazolone, 0.981.

Take “AUCUACCUAGGUCAUCGGGUG [Fam2.2 aminoacylation ribozyme variant]”: the self-aminoacylation in the data set with biotinyl-Met-oxazolone is 10; in the data set on biotinyl-Ile-oxazolone, 6.54; with biotinyl-Phe-oxazolone, 51.1; with biotinyl-Leu-oxazolone, 12.1; in the data set with biotinyl-Trp-oxazolone it was 8.66; in the data set with biotinyl-Val-oxazolone, 6.18.

For the sequence “GUUAUCCUGGUCAUCGAGUGA [Fam2.1 aminoacylation ribozyme variant]”, the self-aminoacylation stood at 10.9 in the data set with biotinyl-Met-oxazolone; 6.24 in the data set on biotinyl-Ile-oxazolone; 16.1 in the data set with biotinyl-Phe-oxazolone; 9.81 in the data set with biotinyl-Leu-oxazolone; 13.1 in the data set on biotinyl-Trp-oxazolone; 5.41 in the data set with biotinyl-Val-oxazolone.

For “ACUCACCUAGGUCGUCGGGUG [Fam2.2 aminoacylation ribozyme variant]”, the self-aminoacylation with biotinyl-Met-oxazolone stood at 2.56; in the data set on biotinyl-Ile-oxazolone it was 2.58; in the data set on biotinyl-Phe-oxazolone, 6.16; in the data set with biotinyl-Leu-oxazolone, 2.25; with biotinyl-Trp-oxazolone it was 3.42; with biotinyl-Val-oxazolone, 2.4.

With “CUACUACAAACAAUCCGUCUG [Fam1A.1 aminoacylation ribozyme variant]”, the self-aminoacylation with biotinyl-Met-oxazolone amounted to 0.728; with biotinyl-Ile-oxazolone, 0.717; with biotinyl-Phe-oxazolone, 0.545; in the data set with biotinyl-Leu-oxazolone it was 0.68; in the data set on biotinyl-Trp-oxazolone it was 0.855; with biotinyl-Val-oxazolone, 0.832.

Take “CCACACUUCAAGCAAUCCGGC [Fam1B.1 aminoacylation ribozyme variant]”: the self-aminoacylation is 3.54 in the data set with biotinyl-Met-oxazolone; 3.02 with biotinyl-Ile-oxazolone; 1.71 in the data set on biotinyl-Phe-oxazolone; 2.88 with biotinyl-Leu-oxazolone; 2.1 with biotinyl-Trp-oxazolone; 3.66 in the data set on biotinyl-Val-oxazolone.

“CUACUUCAAUCAAUGGGUCUG [Fam1A.1 aminoacylation ribozyme variant]”: the self-aminoacylation in the data set with biotinyl-Met-oxazolone is 0.801; in the data set on biotinyl-Ile-oxazolone, 0.889; with biotinyl-Phe-oxazolone, 0.579; with biotinyl-Leu-oxazolone, 0.912; with biotinyl-Trp-oxazolone it was 0.627; with biotinyl-Val-oxazolone it was 0.809.

For “AAUUGUGCUAAUAGUCGCAAG [Fam3.1 aminoacylation ribozyme variant]”, the self-aminoacylation amounted to 2.02 in the data set with biotinyl-Met-oxazolone; 1.93 in the data set with biotinyl-Ile-oxazolone; 3.05 in the data set on biotinyl-Phe-oxazolone; 2.18 in the data set on biotinyl-Leu-oxazolone; 2.44 in the data set on biotinyl-Trp-oxazolone; 1.75 with biotinyl-Val-oxazolone.

For “CUAAUUCAUACAAUCGGUCUG [Fam1A.1 aminoacylation ribozyme variant]”, the self-aminoacylation in the data set on biotinyl-Met-oxazolone is 0.637; in the data set on biotinyl-Ile-oxazolone, 0.767; in the data set with biotinyl-Phe-oxazolone, 0.621; in the data set on biotinyl-Leu-oxazolone, 0.594; in the data set with biotinyl-Trp-oxazolone, 0.52; in the data set with biotinyl-Val-oxazolone, 0.77.

With “CCACACUCCAAGCAAUCGGGC [Fam1B.1 aminoacylation ribozyme variant]”, the self-aminoacylation amounted to 1.31 in the data set with biotinyl-Met-oxazolone; 2.01 with biotinyl-Ile-oxazolone; 1.07 with biotinyl-Phe-oxazolone; 1.65 with biotinyl-Leu-oxazolone; 2.55 in the data set with biotinyl-Trp-oxazolone; 2.08 with biotinyl-Val-oxazolone.

Take “CCACACUUCAACCACUCGGUC [Fam1B.1 aminoacylation ribozyme variant]”: the self-aminoacylation with biotinyl-Met-oxazolone is 1.24; with biotinyl-Ile-oxazolone, 1.18; in the data set with biotinyl-Phe-oxazolone, 0.849; with biotinyl-Leu-oxazolone, 1.1; in the data set on biotinyl-Trp-oxazolone, 0.978; in the data set on biotinyl-Val-oxazolone, 1.28.

With “AUUCACACAGGUCAUCGGGUG [Fam2.2 aminoacylation ribozyme variant]”, the self-aminoacylation in the data set with biotinyl-Met-oxazolone amounted to 5.6; with biotinyl-Ile-oxazolone, 4.03; in the data set with biotinyl-Phe-oxazolone it was 39.6; in the data set on biotinyl-Leu-oxazolone, 7.14; in the data set on biotinyl-Trp-oxazolone it was 5.26; with biotinyl-Val-oxazolone, 4.47.

Regarding “CCAUACUUCAAGUAAUCGGUC [Fam1B.1 aminoacylation ribozyme variant]”, the self-aminoacylation in the data set with biotinyl-Met-oxazolone came to 0.825; in the data set with biotinyl-Ile-oxazolone it was 0.914; with biotinyl-Phe-oxazolone, 8.18; in the data set with biotinyl-Leu-oxazolone, 1.07; in the data set on biotinyl-Trp-oxazolone, 5; in the data set on biotinyl-Val-oxazolone it was 0.861.

Regarding “AUUCACCUAGGUCCUUGGGUG [Fam2.2 aminoacylation ribozyme variant]”, the self-aminoacylation in the data set on biotinyl-Met-oxazolone is 4.11; in the data set on biotinyl-Ile-oxazolone it was 2.7; with biotinyl-Phe-oxazolone it was 31.7; with biotinyl-Leu-oxazolone, 5.09; in the data set with biotinyl-Trp-oxazolone, 3.42; with biotinyl-Val-oxazolone, 2.51.

With “CCUCACCUCAAGCAAUCGGUC [Fam1B.1 aminoacylation ribozyme variant]”, the self-aminoacylation was 0.79 in the data set with biotinyl-Met-oxazolone; 1.02 in the data set on biotinyl-Ile-oxazolone; 4.38 in the data set on biotinyl-Phe-oxazolone; 0.963 in the data set with biotinyl-Leu-oxazolone; 2.12 with biotinyl-Trp-oxazolone; 1.3 with biotinyl-Val-oxazolone.
